According to patent US20260008817A1, “CYCLIC PEPTIDE OR SALT THEREOF, AND USES THEREOF” (FUJIFILM Corporation, priority 2023, published 2026):
Positions of bridges follow the written chain, without caps; N, C: chain ends. No end group written: not given here. COCH2 = acetyl group that carries the bridge

biological target: T1, Recombinant Human FGFR1 alpha (IIIc) Fc Chimera Protein (Homo sapiens, UniProt P11362); experiment: ELISA binding affinity of enzymatically synthesized peptide to FGFR; details: ELISA luminescence signal at 10 nmol/L peptide, SEQ ID NO: 239 standardized to 1; enzyme synthesis product
T1 construct: purchased R&D systems 658-FR-050
Description: The binding affinity of the peptide to FGFR was evaluated using an ELISA method.
The peptide used for the evaluation was enzymatically synthesized by the following method.
First, a fusion peptide (SEQ ID NO: 25) in which a translation enhancing sequence (SEQ ID NO: 22), a peptide, a Myc tag (SEQ ID NO: 23), and a HiBiT tag (SEQ ID NO: 24) were linked in this order was designed. Next, a template DNA sequence (SEQ ID NO: 26) was designed in which a T7 promoter sequence, a Shine-Dalgarno sequence, a sequence necessary for transcription and translation initiation, such as a start codon (ATG), was provided on the 5′ terminal side of the DNA sequence encoding the fused peptide, and a stop codon group was provided on the 3′ terminal side thereof. In a case where the triplet TAG codon is included in the template DNA sequence, the above-described codon is assigned to the codon of chloroacetylated lysine, and thus, the peptide encoded by the above-described DNA sequence is a cyclic peptide in which a thiol group of cysteine and a chloroacetyl group of chloroacetylated lysine spontaneously form a thioether bond.
The cell-free enzymatic synthesis of the polypeptide was performed in a translation solution containing a template DNA, PUREfrex 2.0 (GeneFrontier, PF201-0.25-5), and Aminoacyl tRNA (1). 1.75 μL ([…]) of the template DNA prepared to 50 ng/μL, 2.5 μL of PUREfrex 2.0 Solution I, 0.25 μL of Solution II, 0.5 μL of Solution III, and a dried product of Aminoacyl tRNA (1) (final concentration: 0.5 ng/μL) were mixed and mixture was subjected to a reaction at 37° C. for 1 hour.
The concentration of the enzymatically synthesized peptide was measured using the peptide diluted with Can Get Signal Immunoreaction Enhancer Solution I (TOYOBO, NKB-101), Nano-Glo HiBiT Lytic Detection System (Promega, N3040), and a chemical synthetic peptide for a calibration curve having a known concentration (SEQ ID NO: 33) according to the standard protocol of the Nano-Glo HiBiT Lytic Detection System.
The binding affinity of the enzymatically synthesized peptide to FGFR was measured by evaluating the amount of the peptide bound to FGFR by ELISA.
First, 5 ng of Recombinant Human FGFR1 alpha (IIIc) Fc Chimera Protein (R&D systems, 658-FR-050) was immobilized in each well of a 96-well plate, and blocked with Pierce Protein-Free (PBS) Blocking Buffer (Thermo, 37572), and a peptide diluted with Can Get Signal Immunoreaction Enhancer Solution I (TOYOBO, NKB-101) was then added and reacted at room temperature for 3 hours. After washing with 0.05% Tween 20-containing phosphate buffered saline (PBS), an anti-Myc antibody (Cell Signaling, 14038S) diluted with Can Get Signal Immunoreaction Enhancer Solution II (TOYOBO, NKB-101) was added and reacted at room temperature for 2 hours. After washing with 0.05% Tween 20-containing PBS, SuperSignal ELISA Femto Substrate (Thermo, 37075) was added, and the luminescence amount was measured. The dose-response relationship was calculated from using the difference between the luminescence amount in the well in which FGFR was immobilized and the luminescence amount in the well in which FGFR was not immobilized, and the concentration of the peptide at the time of reaction, and the binding affinity to FGFR was evaluated according to the following evaluation criteria. The evaluation result preferably satisfies the evaluation criteria A, B, or C.
In a case where a value of a luminescence signal emitted by the cyclic peptide set forth in SEQ ID NO: 239 at a reaction concentration of 10 nmol/L is standardized to 1, evaluation criteria of the luminescence signal value emitted by the peptide at a reaction concentration of 10 nmol/L is as follows. • A: 0.7 or more • B: 0.5 or more and less than 0.7 • C: 0.1 or more and less than 0.5 • D: less than 0.1.

T1 sequence (P11362 with tags, fused parts or gaps limits assumed): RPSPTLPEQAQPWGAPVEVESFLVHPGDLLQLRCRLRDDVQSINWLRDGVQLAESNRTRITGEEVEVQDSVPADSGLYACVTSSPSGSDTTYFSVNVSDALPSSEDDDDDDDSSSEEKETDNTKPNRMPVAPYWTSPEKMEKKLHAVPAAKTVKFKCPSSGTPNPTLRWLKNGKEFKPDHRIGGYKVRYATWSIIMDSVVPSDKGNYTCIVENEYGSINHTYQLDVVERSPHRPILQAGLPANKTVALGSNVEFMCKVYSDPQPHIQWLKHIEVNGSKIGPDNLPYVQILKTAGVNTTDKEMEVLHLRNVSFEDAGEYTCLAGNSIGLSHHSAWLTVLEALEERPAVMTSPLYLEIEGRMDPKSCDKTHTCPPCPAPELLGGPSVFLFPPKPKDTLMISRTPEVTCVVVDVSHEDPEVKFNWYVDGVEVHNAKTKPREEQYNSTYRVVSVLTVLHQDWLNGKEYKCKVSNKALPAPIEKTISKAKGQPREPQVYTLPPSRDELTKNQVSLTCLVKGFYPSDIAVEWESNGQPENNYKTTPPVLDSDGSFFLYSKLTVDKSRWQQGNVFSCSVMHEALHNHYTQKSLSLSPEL

Row | Substance | Evaluation result of binding affinity to FGFR
1 | 103 (ICVYTFDAAAHSLHAALTKI; Description of Artificial Sequence: Cyclic peptide) [compound 103] | A (0.7 or more)
2 | 131 (ICVYTFDAHAASLHAALTKI; Description of Artificial Sequence: Cyclic peptide) [compound 131] | A (0.7 or more)
3 | 40 (GCVYTFDAHAHSLHAALTK(COCH2)I; thioether 2-19 (inferred)) [compound 40] | A (0.7 or more)
4 | 145 (ICVYTFDAHAESLHAALTK(COCH2)I; thioether 2-19 (inferred)) [compound 145] | A (0.7 or more)
5 | 160 (ICVYTFDAHAHRLHAALTK(COCH2)I; thioether 2-19 (inferred)) [compound 160] | C (0.1 or more and less than 0.5)
6 | 185 (ICVYTFDAHAHSLNAALTK(COCH2)I; thioether 2-19 (inferred)) [compound 185] | A (0.7 or more)
7 | 118 (ICVYTFDAHGHSLHAALTKI; Description of Artificial Sequence: Cyclic peptide) [compound 118] | C (0.1 or more and less than 0.5)
8 | 281 (YCVYTFDAQDVWRPLRK(COCH2)V; thioether 2-17 (inferred)) [compound 281] | C (0.1 or more and less than 0.5)
9 | 132 (ICVYTFDAHAGSLHAALTKI; Description of Artificial Sequence: Cyclic peptide) [compound 132] | A (0.7 or more)
10 | 249 (VCVRPIFIFSFRAPFNAVDWK(COCH2)I; thioether 2-21 (inferred)) [compound 249] | C (0.1 or more and less than 0.5)
11 | 175 (ICVYTFDAHAHSHHAALTK(COCH2)I; thioether 2-19 (inferred)) [compound 175] | B (0.5 or more and less than 0.7)
12 | 96 (ICVYTFDNHAHSLHAALTK(COCH2)I; thioether 2-19 (inferred)) [compound 96] | C (0.1 or more and less than 0.5)
13 | 56 (ICLYTFDAHAHSLHAALTK(COCH2)I; thioether 2-19 (inferred)) [compound 56] | B (0.5 or more and less than 0.7)
14 | 111 (ICVYTFDANAHSLHAALTKI; Description of Artificial Sequence: Cyclic peptide) [compound 111] | A (0.7 or more)
15 | 140 (ICVYTFDAHANSLHAALTK(COCH2)I; thioether 2-19 (inferred)) [compound 140] | A (0.7 or more)
16 | 161 (ICVYTFDAHAHHLHAALTK(COCH2)I; thioether 2-19 (inferred)) [compound 161] | C (0.1 or more and less than 0.5)
17 | 217 (ICVYTFDAHAHSLHAALVK(COCH2)I; thioether 2-19 (inferred)) [compound 217] | C (0.1 or more and less than 0.5)
18 | 100 (ICVYTFDEHAHSLHAALTKI; Description of Artificial Sequence: Cyclic peptide) [compound 100] | A (0.7 or more)
19 | 290 (FCVYTFDANAQSLDDALNK(COCH2)Q; thioether 2-19 (inferred)) [compound 290] | A (0.7 or more)
20 | 101 (ICVYTFDRHAHSLHAALTKI; Description of Artificial Sequence: Cyclic peptide) [compound 101] | A (0.7 or more)
21 | 291 (ICVYTFDAHAHSLDDALTK(COCH2)I; thioether 2-19 (inferred)) [compound 291] | A (0.7 or more)

Row | Substance | Evaluation result of binding affinity to FGFR
22 | 179 (ICVYTFDAHAHSLLAALTK(COCH2)I; thioether 2-19 (inferred)) [compound 179] | B (0.5 or more and less than 0.7)
23 | 68 (ICVYVFDAHAHSLHAALTK(COCH2)I; thioether 2-19 (inferred)) [compound 68] | C (0.1 or more and less than 0.5)
24 | 265 (VCIYTWDRQSWPVKL; Description of Artificial Sequence: Cyclic peptide) [compound 265] | B (0.5 or more and less than 0.7)
25 | 287 (YCPFEVYSWWVPKWHK(COCH2)I; thioether 2-16 (inferred)) [compound 287] | C (0.1 or more and less than 0.5)
26 | 39 (ACVYTFDAHAHSLHAALTK(COCH2)I; thioether 2-19 (inferred)) [compound 39] | A (0.7 or more)
27 | 152 (ICVYTFDAHAHFLHAALTK(COCH2)I; thioether 2-19 (inferred)) [compound 152] | C (0.1 or more and less than 0.5)
28 | 93 (ICVYTFDVHAHSLHAALTK(COCH2)I; thioether 2-19 (inferred)) [compound 93] | C (0.1 or more and less than 0.5)
29 | 297 (ICVYTFDAHAHSLHDALNK(COCH2)I; thioether 2-19 (inferred)) [compound 297] | A (0.7 or more)
30 | 325 (ICVYTFDANAHSLDDALTK(COCH2)I; thioether 2-19 (inferred)) [compound 325] | A (0.7 or more)
31 | 276 (ECIYTFDPQRHPVLVK(COCH2)V; thioether 2-16 (inferred)) [compound 276] | C (0.1 or more and less than 0.5)
32 | 228 (ICVYTFDAHAHSLHAALTK(COCH2)F; thioether 2-19 (inferred)) [compound 228] | C (0.1 or more and less than 0.5)
33 | 45 (YCVYTFDAHAHSLHAALTK(COCH2)I; thioether 2-19 (inferred)) [compound 45] | A (0.7 or more)
34 | 277 (TCPVWAWHQAFQFGWK(COCH2)I; thioether 2-16 (inferred)) [compound 277] | C (0.1 or more and less than 0.5)
35 | 199 (ICVYTFDAHAHSLHNALTK(COCH2)I; thioether 2-19 (inferred)) [compound 199] | A (0.7 or more)
36 | 89 (ICVYTFDGHAHSLHAALTK(COCH2)I; thioether 2-19 (inferred)) [compound 89] | B (0.5 or more and less than 0.7)
37 | 295 (ICVYTFDAHAHSLDAALNKV; not fully specified (residue 19, bridges)) [compound 295] | A (0.7 or more)
38 | 233 (ICVYTFDAHAHSLHAALTK(COCH2)S; thioether 2-19 (inferred)) [compound 233] | C (0.1 or more and less than 0.5)
39 | 270 (QCWWTLQVWSYPFHKH; Description of Artificial Sequence: Cyclic peptide) [compound 270] | C (0.1 or more and less than 0.5)
40 | 285 (QCSWWYVQVWTYPFHVLK(COCH2)G; thioether 2-18 (inferred)) [compound 285] | C (0.1 or more and less than 0.5)
41 | 153 (ICVYTFDAHAHYLHAALTK(COCH2)I; thioether 2-19 (inferred)) [compound 153] | C (0.1 or more and less than 0.5)
42 | 141 (ICVYTFDAHAQSLHAALTK(COCH2)I; thioether 2-19 (inferred)) [compound 141] | A (0.7 or more)
